Test results as given in article PMC5951583 (PLoS Pathogens, 2018).
Several values for one entry are separate records, joined by “and”; a condition that tells them apart may be missing. Equal entries are not always repeated.

Biological target: HC-fragment of BoNT/DC fused to a C-terminal Streptag (HCDCS; AA 863–1285), wild-type (C. botulinum strain OFD05, UniProt A5JGM8 863-1285)
Experiment: SPR
Conditions: both partners purified

| Binder | koff | Kd [nM] | kon [M⁻¹ s⁻¹] |
| --- | --- | --- | --- |
| GST-rSyt-II 1–90 (domain or fragment, also called GST-Syt-II 1–90; Syt-II with its TMD) MRNIFKRNQEPIVAPATTTATMPLAPAAPADNSTESTGTGESQEDMFAKLKDKFFNEINKIPLPPWALIAMAVVAGLLLLTCCFCICKKC | 0.49 s⁻¹ and 0.63 s⁻¹ |  |  |
| GST-rSyt-II 1–61 (domain or fragment, also called GST-Syt-II 1–61; isolated Syt-II) MRNIFKRNQEPIVAPATTTATMPLAPAAPADNSTESTGTGESQEDMFAKLKDKFFNEINKI | 0.24 s⁻¹ | 1800 | 230000 |
